Assay [1] has as its target intracellular antigens (TNT) in paraformaldehyde fixed Raji lymphoma cells. The assay is described as follows: fixed-cell radioimmunoassay on Raji cells, compared with the literature value for NHS76.
Assay [2] shares this target. The assay can be described thus: fixed-cell radioimmunoassay: 125I-labeled fusion protein on paraformaldehyde-fixed Raji lymphoma cells, Scatchard analysis, Ka = -(slope/n) with n = 2.

“B7.1/NHS76 fusion protein (from UniProt P33681 35-242)”: the affinity relative to parental NHS76 (fold of parental NHS76) in assay [1] amounted to 0.14. The same substance showed a Ka in assay [2] of 2.15e+08 M⁻¹.

(Values after patent publication US7696175.)
